Assay results as given in US7799901B2, “Modulators of the function of FAS receptors and other proteins” (Yeda Research and Development Co. Ltd., priority 1995, dated 2010).

T1: GST-MORT-1 fusion protein (Homo sapiens, UniProt Q13158)
T1 construct: made in house
T1 sequence (Q13158 1-208): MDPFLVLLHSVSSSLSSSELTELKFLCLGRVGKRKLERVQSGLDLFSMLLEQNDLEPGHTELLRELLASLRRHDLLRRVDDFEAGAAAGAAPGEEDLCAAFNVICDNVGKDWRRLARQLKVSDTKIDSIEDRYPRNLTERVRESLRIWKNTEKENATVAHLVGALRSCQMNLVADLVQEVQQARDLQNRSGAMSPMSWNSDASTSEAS

T2: GST-Fas-IC fusion protein with a replacement at the lpr^eg mutation site (I225A) (Mus musculus, UniProt P25446, I246A)
T2 construct: GST fusion with Fas-IC containing a Ile to Ala replacement mutation at position 225; made in house; host or cells: E. coli
T2 sequence (P25446 187-327 I246A): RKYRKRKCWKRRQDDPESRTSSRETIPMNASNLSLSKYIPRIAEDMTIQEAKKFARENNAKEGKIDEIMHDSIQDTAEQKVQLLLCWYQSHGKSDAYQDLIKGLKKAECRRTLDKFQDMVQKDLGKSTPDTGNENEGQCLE

B1: MACHβ1: MACH isoform, cDNA SEQ ID NO: 4, amino acid SEQ ID NO: 5; lacks the CED3/ICE homology region (protein)
chain: MDFSRNLYDIGEQLDSEDLASLKFLSLDYIPQRKQEPIKDALMLFQRLQEKRMLEESNLSFLKELLFRINRLDLLITYLNTRKEEMERELQTPGRAQISAYRVMLYQISEEVSRSELRSFKFLLQEEISKCKLDDDMNLLDIFIEMEKRVILGEGKLDILKRVCAQINKSLLKIINDYEEFSKERSSSLEGSPDEFSNDFGQSLPNEKQTSGILSDHQQSQFCKSTGESAQTSQH
B2: MORT-1: Mediator of Receptor-induced Toxicity; protein binding the intracellular domain of FAS-R, SEQ ID NO:2 (protein)
chain: VNQAPECRFGGGILGPLGKRRDLARASEPRTEGARRAGPQPRPLADPAMDPFLVLLHSVSSSLSSSELTELKFLCLGRVVKRKLERVQSGLDLFSMLLEQNDLEPGHTELLRELLASLRRHDLLRRVDDFEAGAAAGAAPGEEDLCAAFNVICDNVGKDWRRLARQLKVSDTKIDSIEDRYPRNLTERVRESLRIWKNTEKENATVAHLVGALRSCQMNLVADLVQEVQQARDLQNRSGAMSPMSWNSDASTSEAS

Key:
[1] = target: T1, GST-MORT-1 fusion protein; assay: In vitro binding to GST-MORT-1 on glutathione-agarose beads
Text: It has been shown also to contribute to, though not to suffice in, the self association of MORT-1 (see Example 1). […] To further assess the involvement of the MORT modules in these interactions, deletion mutants of MACHβ1, fused with the FLAG octapeptide (FLAG-MACHβ1), were expressed in HeLa cells and assessed for their binding in vitro to bacterial-produced […] fusion protein (GST-MORT-1). […] FIGS. 9A and 9B show the results (autoradiograms) of the in vitro interaction of MACHβ1 and its deletion mutants with MORT-1. Briefly, 35 [S] metabolically labeled MACHβ1, MACHβ1 fused at its N-terminus to the FLAG octapeptide (FLAG-MACHβ1), C-terminus truncation mutants of FLAG-MACHβ1, and, as a control, luciferase, were produced in transfected HeLa cells. Expression was done using a tetracycline-controlled expression vector, in a HeLa cell clone (HtTA-1) that expresses a tetracycline-controlled transactivator.
The antibodies used are as follows: Rabbit anti-MACHβ1 and anti-MORT1 antisera were raised against GST-MACHβ1 and GST-MORT1 fusion proteins. Mouse monoclonal antibodies against the FLAG octapeptide (M2) and against FAS/APO1 (CH11, Yonehara et al, 1989) were purchased from Eastman Kodak and Oncor (Gaithersburg, Md.) respectively. […]

[2] = target: T2, GST-Fas-IC fusion protein with a replacement at the lpr^eg mutation site (I225A); assay: In vitro binding to GST-Fas-IC with I225A replacement; conditions: [35S]-labeled protein from HeLa extracts; SDS-PAGE, autoradiography
Procedure: Glutathione S-transferase (GST) fusions with the wild type or a mutated Fas-IC were produced and adsorbed to glutathione-agarose beads; see Boldin et al, 1995; Ausubel et al, 1994; Frangioni and Neel, 1993). Binding of metabolically-labeled FLAG-MORT-1 fusion protein to GST-Fas-IC was assessed by incubating the beads for 2 h at 4° C. with extracts of HeLa cells, metabolically labeled with [^35S]methionine (60 μCi/ml), that express FLAG-MORT-1. The extracts were prepared in a buffer containing 50 mM Tris-HCl, pH 7.5, 150 mM NaCl, 0.1% NP-40; 1 mM dithioteitol, 1 mM EDTA, 1 mM phenylmethylsulfonyl fluoride, 20 μg/ml Aprotonin, […] Leupeptin, 10 mM-sodium fluoride and 0.1 mM sodium vanadate (1 ml per 5×10^5 cells).
Expression of MORT-1 molecules fused at their N terminus with the. FLAG octapeptide (FLAG-MORT-1) yielded in HeLa cells proteins of four distinct sizes—about […], 28, 32, and 34 kD. […] Thus, the in vitro interaction was evaluated by assessing, by autoradiography following SDS-PAGE, the binding of [35] metabolically labeled MORT-1, produced in transfected HeLa cells as a fusion with the FLAG octapeptide (FLAG-MORT-1), to GST, GST fusion with the human or mouse Fas-IC (GST-huFas-IC, GST-mFas-IC) or to GST fusion with Fas-IC containing a Ile to Ala replacement mutation at position 225.

Molecule | in vitro binding to GST-MORT-1 fusion protein [1] | in vitro binding to GST-Fas-IC (I225A) [2]
B1 | able to bind | 
B2 |  | did not bind
